Source: paper PMC8974011

Molecular target: T1, endogenous STAT1 of HeLa cells (human (endogenous in HeLa)), P42224
T1 chain: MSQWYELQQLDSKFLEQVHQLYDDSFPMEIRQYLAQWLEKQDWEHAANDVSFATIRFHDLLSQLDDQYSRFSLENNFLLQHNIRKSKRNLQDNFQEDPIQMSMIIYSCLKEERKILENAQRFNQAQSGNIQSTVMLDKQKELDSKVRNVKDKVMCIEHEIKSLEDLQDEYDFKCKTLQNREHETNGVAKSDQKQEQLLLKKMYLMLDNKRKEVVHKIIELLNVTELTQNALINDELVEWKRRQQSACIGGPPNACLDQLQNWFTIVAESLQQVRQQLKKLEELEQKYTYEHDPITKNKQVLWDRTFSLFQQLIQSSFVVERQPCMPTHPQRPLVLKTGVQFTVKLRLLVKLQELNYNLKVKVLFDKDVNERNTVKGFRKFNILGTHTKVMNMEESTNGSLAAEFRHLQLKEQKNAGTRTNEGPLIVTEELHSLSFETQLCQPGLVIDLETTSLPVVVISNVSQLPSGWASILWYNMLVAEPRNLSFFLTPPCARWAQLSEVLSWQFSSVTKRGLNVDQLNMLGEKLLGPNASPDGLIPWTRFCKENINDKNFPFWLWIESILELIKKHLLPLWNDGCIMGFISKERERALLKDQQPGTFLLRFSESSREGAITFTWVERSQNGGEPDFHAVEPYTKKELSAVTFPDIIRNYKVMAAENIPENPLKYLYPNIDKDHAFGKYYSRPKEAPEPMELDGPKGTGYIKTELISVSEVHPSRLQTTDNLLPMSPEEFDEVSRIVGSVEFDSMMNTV
Assay: native gel or EMSA; extracts of IFNγ-stimulated HeLa cells incubated with [33P]-labelled 2xGAS duplex DNA (two tandem GAS sites); super-shift with STAT1 antibody; competition with 750-fold molar excess of unlabelled M67 DNA; 4.8% acrylamide gel at 4 °C; only DNA-bound complexes are seen
Details: remark: other sources report otherwise

stoichiometry N: 4
B1: endogenous STAT1 of HeLa cells, P42224 1-750 (natural protein)
chain: T1 chain
modifications: here or on the partner: phospho-tyrosine 701 (P-STAT1, IFNγ-stimulated cells); phospho-tyrosine 701 (P-STAT1, IFNγ-stimulated cells)
